From the supplement of paper PMC9170038

Tested on: MS2 coat protein
Experiment: apparent KD of MS2 coat protein; designed switch direction (-1 OFF switch, 1 ON switch): -1; higher = weaker reporter binding
In short: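 SNAP-549-labelled MS2 coat protein was titrated, doubling from 0.7 or 1.5 nM to 3 µM, over designed RNA switches transcribed on Illumina chips by stalled E. coli RNA polymerase. Runs were done without input, with 200 uM small-molecule ligand, or with an oligonucleotide input. Apparent KD is the per-design median over clusters of curve-fitted normalised fluorescence.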

[1] = input ligand: microRNA oligo, concentration not stated
[2] = Eterna round: R95, input ligand: microRNA oligo, concentration not stated
[3] = Eterna round: R95, input ligand: FMN 200 uM
[4] = Eterna round: R95, input ligand: none

Sequence | apparent KD of MS2 coat protein (input ligand: FMN 200 uM) [nM] | apparent KD of MS2 coat protein [1] [nM] | apparent KD of MS2 coat protein (input ligand: none) [nM] | apparent KD of MS2 coat protein [2] [nM] | apparent KD of MS2 coat protein [3] [nM] | apparent KD of MS2 coat protein [4] [nM]
AGGUCCUUCUGGACACAUGAGGAUCACCCAUGUGAGGUCAGCGAGGAUAUCGGUCUAUAAUGUGACGAGAAGGCGCGGACCGAU [Ex NG3 #59] (Eterna round: R96, puzzle: Exclusion NG 3) | 16.8 | 11.3 | 16.4 |  |  | 
UACAUGAGGAUCACCCAUGUUUUGUCGUGUAUGGUAUUUAUCUAGGAUAUCAAUUUAUUUAUGUAUGAGAAGGAGAAUAUUAAU [JMF's solution 23] (Eterna round: R96, puzzle: Exclusion NG 3) | 40.8 | 29.8 | 44.7 |  |  | 
UAUAUAUAGUAAGGAUAUGUAUAUAUUUUGUAAACAGAAGGUACUGACAUGAGGAUCACCCAUGUUUUAGUGUGGGCAUGUAGA [JMF's solution 66] (Eterna round: R96, puzzle: Exclusion NG 1) |  | 60.9 |  |  |  | 
ACUUACUGAGGAUAUGCGUGGAUAAACAUGAGGAUCACCCAUGUUCCUAUAAGUAUGUAUGUAGAAGGCAGAAGAA [JR_Ex5_Sub075] (Eterna round: R97, puzzle: Exclusion 5) | 60.5 |  | 130 |  |  | 
GCCAGAGCAGGAUAUUCAAUAAUCCACAUGAGGAUCACCCAUGUCUAGCGAAAGCUAGAGGGAGAAGGGCUCUGGC [Mat - Exclusion 5 - Eli mod - D90] (puzzle: Exclusion 5) |  |  |  | 57.2 |  | 
CUCUUGUUAGGAUAUCAAACCAGCGGCGGAACCGCUGGAAGUGAGAAGGGACAUGAGGAUCACCCAUGUAAGAA [Usrebiis] (puzzle: Exclusion 4) |  |  |  | 39.3 | 161 | 64.8
UAUUAGCGAGGAUAUACAUGAGGAUCACCCAUGUGAUCCUAAGGCUGAUAAAGCCUAUGUAGAAGGCGCAAAAG [jl-ex3.4.51 ViennaUCT mod] (Eterna round: R97, puzzle: Exclusion 3) | 227 |  | 421 |  |  | 
GCAUGGCGAGGAUAUACAUGAGGAUCACCCAUGUGAGAAUAAGAAGUGAGGAAGAAAAGUAGAAGGCGCUGUGG [Mat - Exclusion 3 - Mod of Salish D65] (puzzle: Exclusion 3) |  |  |  | 73.8 | 173 | 84.5
ACUUAUAGAGGAUAUACAGUUUAUUACAUGAGGAUCACCCAUGUUCUUCAAUGUCCUGAAGUAGAAGGCUAAGGAA [Ex5 Malc#5 mod4] (Eterna round: R97, puzzle: Exclusion 5) | 19.7 |  | 16.3 |  |  | 
AAACGGGACUGAGGAUAUUCGUUCGAACACGAAGAAGAAGGUAGUGUCAGGGACAUGAGGAUCACCCAUGUGAACUCAGUCCCA [Erinle] (Eterna round: R96, puzzle: Exclusion NG 1) | 32.5 | 21 | 32.3 |  |  | 
CCCUCACAUGAGGAUCACCCAUGUCAGGAUAUCUCACAUCAGCCUUAGGCCGAUGUCUAGAGAAGGGACGUAUC [Latees] (puzzle: Exclusion 1) |  |  |  | 21.3 |  | 
GCUGGACGAGGAUAUGCAAUCGUGCUUCGGCACGUAAGGUCACAUGAGGAUCACCCAUGUAGAAGGUGUCCAGC [E2/4-B2] (Eterna round: R97, puzzle: Exclusion 2) | 31.1 |  | 20.5 |  |  | 
AAUAAAACAUAGGAUAUCGAAUUUAUCAUUUAACGAGAAGGAUGAACAUGAGGAUCACCCAUGUGGUAUCAUGG [Mat - Exclusion 6 - JL Mod - D7] (puzzle: Exclusion 6) |  |  |  | 244 | 168 | 216
GAGUGACAUGAGGAUCACCCAUGUAAGGAUAUACGGUUGGUAGAGAGAGGGCUAAAGGGUAGAAGGUACGAAGG [JR_Exclu1_Sub055] (puzzle: Exclusion 1) |  |  |  | 63.1 |  | 
UUAUUAUAUGUAGGAUAUGCAUAUUAUUAUUAUGCAGAAGGACAUGAGGAUCACCCAUGUAUAUUAUUAUUAUAUAUUAUAUAU [Title] (Eterna round: R96, puzzle: Exclusion NG 1) |  | 23.6 |  |  |  | 
GUCCUGGAAUAUCAGAAGCACAUGAGGAUCACCCAUGUCAUGGGUAGAUCAAUAAAUAAAGAUACUGCUCGUCUUAU [Cac sensor turnoff var1 sub4] (Eterna round: R97, puzzle: Sensor, turn-off variant 1) | 837 |  | 228 |  |  | 
GAGUUAGCGUGAGGAAUAUACAUGAGGAUCACCCAUGUUAGCUAAUAUAUUGCUCGUCUUAUAACAACAAUUAACUG [Mod JX-Electric-eye] (Eterna round: R97, puzzle: Sensor, turn-off variant 1) | 14.2 |  | 15.9 |  |  | 

Sequence | apparent KD of MS2 coat protein (input ligand: FMN 200 uM) [nM] | apparent KD of MS2 coat protein [1] [nM] | apparent KD of MS2 coat protein (input ligand: none) [nM] | apparent KD of MS2 coat protein [2] [nM] | apparent KD of MS2 coat protein [3] [nM] | apparent KD of MS2 coat protein [4] [nM]
AAUCUACAUGUAGGAUAUGCGUGGCGAAGCUAUGCAGAAGGACAUGAGGAUCACCCAUGUUUUAGCGUCUGCGUACAGAUGCGA [Mat - Exclusion NG 1 - Mod of JL - D99] (Eterna round: R96, puzzle: Exclusion NG 1) | 269 | 24.4 | 27.2 |  |  | 
CAGUACUGAGGAUAUACAUGAGGAUCACCCAUGUCUUCCAGCUAGGAAACUAGCAAAUGUAGAAGGCAGUACUG [Salish 065 m9] (Eterna round: R97, puzzle: Exclusion 3) | 639 |  | 71.8 |  |  | 
UAUGUUGUUGUGAGGAUAUACUUAGUUUGACCGUAGUAGAAGGCACAUGAGGAUCACCCAUGUAGAUGUUUGGU [JR_BME4_Sub005] (puzzle: Brourd's mod of Exclusion 4) |  |  |  | 14.9 |  | 
UUAUUAUAUGUAGGAUAUGCAUAUUAUUAUUAUGCAGAAGGACAUGAGGAUCACCCAUGUAUAUUGUUGUUAUGUAUUAUAUAU [Title] (Eterna round: R96, puzzle: Exclusion NG 1) | 40.4 | 24.1 | 31.3 |  |  | 
GUUAAACAUGAGGAUCACCCAUGUAAGGAUAUGCUGAGGUCGCGCUGACGUGACUGAAGCAGAAGGUACAAAUG [Mat - Mod of JL D62] (puzzle: Exclusion 1) |  |  |  | 48.7 | 85.4 | 73.9
GUGAAACAUGAGGAUCACCCAUGUGAGGAUAUGUUUAAGUAAUGAUGAAAGUAUAUAUACAGAAGGCACAAUGG [Mat - Mod of JL D72] (puzzle: Exclusion 1) |  |  |  | 71.5 | 142 | 64.4
AGAUAGUCAGGAUAUUAGUGGUGGAGGGAUAAUUUUAUUUUUGAGAAGGGACAUGAGGAUCACCCAUGUAAUAU [JR_Ex4_Sub064] (Eterna round: R97, puzzle: Exclusion 4) | 33.3 |  | 43.5 |  |  | 
GUCUAGAGAGGAUAUAUUUACACUGUACGUCGGAUGAUUGCACUUGAGGAUCACCCAAGUAGAAGGCUCGAGGG [EX2 #33] (Eterna round: R97, puzzle: Exclusion 2) | 130 |  | 112 |  |  | 
GUUUUCAGACGGAGAUCCUACAUGAGGAUCACCCAUGUCUCUCUUGCUAAUUGCUCGUCUUUUUCUCCUCUGUUCUC [Elimod 36 - Jieux - Sensor, turn-off variant 1] (Eterna round: R97, puzzle: Sensor, turn-off variant 1) | 81.2 |  | 95.8 |  |  | 
GCGAGAUGAGGAUAUUAGUGGAAUGACAUGAGGAUCACCCAUGUUACGCAUGUCGAGCUUUGAGAAGGCAUUACGA [Eternabot (L2) Solution 75] (Eterna round: R97, puzzle: Exclusion 5) | 26.2 |  | 31.3 |  |  | 
GUUAUCGGAGGAUAUACAUGAGGAUCACCCAUGUGCCAGUAUGUACUAAUCCUUUAGAGUAGAAGGUCGAUAGG [Eternabot (L1) Solution 72] (Eterna round: R97, puzzle: Exclusion 3) | 198 |  | 118 |  |  | 
GAUUAUGCGAGCUUUAGGGACAUGAGGAUCACCCAUGUUCGUCUUAUUAAUCUGGGUACGCUAACAUACCUAAAUCU [JMF 41] (puzzle: Sensor v3, turn-off variant 1) |  |  |  | 40.7 | 28.5 | 26.7
AGUUGGCAAGGAUAUACAUGAGGAUCACCCAUGUGAAAUUAUAGUGAGGAAAUGAAAAGUAGAAGGUGCUGACA [Mod of Mat 3 - Jieux - Exclusion 3] (Eterna round: R97, puzzle: Exclusion 3) | 114 |  | 30.9 |  |  | 
AACGAUACGCUCAUAAGAACAUGAGGAUCACCCAUGUGUGGUGAGGAUAUCCACCCAGAGGGAAAGGAGAAGGUACCAGUGGGC [Ries] (Eterna round: R96, puzzle: Exclusion NG 3) | 31.3 | 61.8 | 61 |  |  | 
UAUUAGUAAGGAUAUGAGUCGUAGAACGAAAGUACUACGUCUCAGAAGGUACAUGAGGAUCACCCAUGUUCAUU [Mod of Fisker 3 - Jieux - Exclusion 4] (Eterna round: R97, puzzle: Exclusion 4) | 21.8 |  | 13.5 |  |  | 
CACCUGAAAGCAGGAUAUCUUACAUGAGGAUCACCCAUGUAAUAAAUGAGAAUUUCGAAUGUAAUAGAGAAGGGCUGAAAAGGC [Ostracism 86 - Jieux - Exclusion NG 2] (Eterna round: R96, puzzle: Exclusion NG 2) | 47 | 37.7 | 40.3 |  |  | 
AAUUUACAUGAGGAUCACCCAUGUCAGGAUAUGGUUUUAUUUUUUUCUUUUCUUGAUUCCAGAAGGGACAGCUA (puzzle: Exclusion 1) |  |  |  | 82.2 |  | 
